Experimental data from PMC12676778, “Long-tailed class I myosins rely on tail-mediated phosphoinositide recognition for specific membrane recruitment” (Cell Communication and Signaling : CCS, 2025).

Tests used:
microtubules [1] = biological target: microtubules (UniProt P02550)
microtubules [2] = biological target: microtubules (UniProt P02550); remark: listed apart in the source
F-actin = F-actin (UniProt P68135); test: co-sedimentation; YFP fluorescence of pellet and supernatant; increasing F-actin concentrations; 5 mM Tris pH 7.4, 100 mM KCl, 0.04% NaN3, 2 mM MgCl2; 20,000 g, 30 min, 4 °C

microtubules, sequence (P02550 whole entry, chain 1 of 2): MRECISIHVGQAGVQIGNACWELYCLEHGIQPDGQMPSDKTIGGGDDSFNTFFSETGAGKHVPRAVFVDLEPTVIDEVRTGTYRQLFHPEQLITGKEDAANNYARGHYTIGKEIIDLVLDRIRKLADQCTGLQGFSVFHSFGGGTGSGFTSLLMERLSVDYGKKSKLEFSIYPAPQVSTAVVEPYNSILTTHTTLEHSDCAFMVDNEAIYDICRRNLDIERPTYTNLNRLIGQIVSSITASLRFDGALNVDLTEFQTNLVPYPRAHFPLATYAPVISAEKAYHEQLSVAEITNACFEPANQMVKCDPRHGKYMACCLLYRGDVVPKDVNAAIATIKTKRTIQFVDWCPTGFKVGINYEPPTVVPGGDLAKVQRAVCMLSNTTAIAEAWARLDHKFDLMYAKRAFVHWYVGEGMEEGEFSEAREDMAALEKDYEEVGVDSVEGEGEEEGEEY
microtubules, sequence (P02554 whole entry, chain 2 of 2, further chain): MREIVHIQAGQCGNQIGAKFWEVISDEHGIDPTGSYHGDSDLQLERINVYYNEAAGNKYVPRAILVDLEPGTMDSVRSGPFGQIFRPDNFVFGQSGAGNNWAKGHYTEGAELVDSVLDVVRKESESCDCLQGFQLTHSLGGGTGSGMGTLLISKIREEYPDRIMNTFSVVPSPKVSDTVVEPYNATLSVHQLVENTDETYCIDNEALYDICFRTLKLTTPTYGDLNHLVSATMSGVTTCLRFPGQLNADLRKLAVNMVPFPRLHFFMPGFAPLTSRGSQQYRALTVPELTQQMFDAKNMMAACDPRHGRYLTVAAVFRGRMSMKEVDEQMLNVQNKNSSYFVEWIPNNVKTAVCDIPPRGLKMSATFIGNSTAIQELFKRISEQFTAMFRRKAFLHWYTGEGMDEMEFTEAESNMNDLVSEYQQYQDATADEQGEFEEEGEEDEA

inhibition of the cold-induced depolymerization of microtubules, IC50 (microtubules [1]): 0.015 µM
cold-induced depolymerization assays of microtubules, IC50 (microtubules [2]): 0.02 µM
Kd (F-actin): 12 µM
Substance: myosin-1D tail (amino acids 717–1113) (domain or fragment)
